This note sets out measurements from US20250257149A1 (GLYCOTOPE, published 2025).

Test [1] has as its target T1, biotinylated TA-MUC1 peptides (Example 4b).
T1 construct: also called antigen peptide
Briefly: fluorescence proximity sensing (DRX, switchSENSE), biotinylated TA-MUC1 peptide captured by streptavidin; antibody at 3.7, 33.3 and 300 nM. From the text: (§1) A new method to determine binding constants and affinity is the fluorescence proximity sensing using single stranded DNA (96mer) spotted on a chip and complementary DNA coupled to a ligand. In the present study streptavidin was used as a ligand to capture biotinylated TA-MUC1 peptides. […] On- and off-rates can be calculated during association and dissociation. Due to a higher sensitivity faster interactions can be monitored compared to surface plasmon resonance.
(§2) PankoMab and PM-N54Q were diluted from 300 nM in 1:9 steps to 3.67 nM in PE140 buffer and applied to the chip-bound peptides. Binding curves were evaluated by mono-exponential global fit (instrument software). Binding curves of PM and PM-N54Q are exemplarily shown in FIGS. 3A and B. Calculated affinities of PankoMab variants are shown in Table 2: […]

Test [2] concerns the target T2, MUC1 tandem repeat peptide APPAHGVTSAPD-T(X)-RPAPGSTAPPAHGVTSA with GalNAcalpha (Tn) at T (human, GalNAcalpha (Tn) O-glycan on the threonine of PDTR; biotinylated).
T2 construct: also called Tn-PDTR MUC1 peptide; Tn-MUC1 peptide
T2 peptide: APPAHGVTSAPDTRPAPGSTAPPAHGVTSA
Briefly: antigen ELISA on Tn-glycosylated PDTR MUC1 peptide [panel Binding to Tn-MUC1 peptide]. In general terms: An ELISA detects its analyte on a solid surface through an enzyme-linked reagent.

Test [3] concerns the target T2, MUC1 tandem repeat peptide …. The test can be described thus: SPR (Biacore), biotinylated peptide on streptavidin chip, steady-state fit of maximal RU. The method, then: (§3) Binding of the Fab-deglycosylated version of the MUC1-specific antibody PankoMab (PM-N54Q) on TA-MUC-1 derived glycosylated peptide was evaluated by surface plasmon resonance analysis (Biacore). A streptavidin sensor chip was coated with biotinylated TA-MUC1 peptide (Tn glycosylated or not glycosylated). PankoMab and PM-N54Q were diluted sequentially 1:3 from 3,600 to 4.9 nM in HPS-EP. The dilutions were injected at 50 μL/min. Maximal binding of each concentration was determined as response units (RU), respectively, and evaluated with GraphPad Prism using “one-site specific binding”. […] Therefore, in this experimental setting a nearly two-fold increase in affinity was detectable.
For orientation: In SPR one partner is held on a chip, and binding of the other changes the refractive index at the surface.

Test [4] has as its target T3, MUC1 tandem repeat peptide APPAHGVTSAPD-T(X)-RPAPGSTAPPAHGVTSA with sialylated GalNAcalpha (sTn) at T (human, sialylated GalNAcalpha (sTn) O-glycan on the threonine of PDTR; biotinylated).
T3 construct: also called sTn-PDTR MUC1 peptide
T3 peptide: T2 peptide
The test can be described thus: antigen ELISA on sTn-glycosylated PDTR MUC1 peptide [panel Binding to sTn-MUC1 peptide].

For test [5], the target named is T4, MUC1 tandem repeat peptide APPAHGVTSAPD-T(X)-RPAPGSTAPPAHGVTSA with sialylated TF (sTF) at T (human, not fully specified; sialylated TF (sTF) O-glycan on the threonine of PDTR; biotinylated).
T4 construct: also called sTF-PDTR MUC1 peptide
T4 peptide: T2 peptide
Briefly: antigen ELISA on sTF-glycosylated PDTR MUC1 peptide [panel Binding to sTF-MUC1 peptide].

For test [6], the target named is T5, MUC1 tandem repeat peptide APPAHGVTSAPD-T(X)-RPAPGSTAPPAHGVTSA with Galβ1-3GalNAcalpha (TF) at T (human, Galβ1-3GalNAcalpha (TF) O-glycan on the threonine of PDTR; biotinylated).
T5 construct: also called TF-PDTR MUC1 peptide; TF-MUC1 peptide
T5 peptide: T2 peptide
The test can be described thus: antigen ELISA on TF-PDTR MUC1 peptide, purified antibody [panel Binding to TF-MUC1].

In test [7] the target is T2, MUC1 tandem repeat peptide …. Briefly: antigen ELISA on Tn-glycosylated PDTR MUC1 peptide.
The target is the same in test [8]. The test can be described thus: SPR (Biacore), biotinylated peptide on streptavidin chip. The method, then: as §3
In test [9] the target is T1, biotinylated TA-MUC1 peptides (Example …). Briefly: fluorescence proximity sensing (DRX2 switchSENSE), biotinylated peptide captured by streptavidin.
Source text: as §1, §2

Test [10] addresses T5, MUC1 tandem repeat peptide …. Briefly: antigen ELISA on TF-glycosylated PDTR MUC1 peptide [panel Binding to TF-MUC1 peptide].
In test [11] the target is T4, MUC1 tandem repeat peptide …. Briefly: TA-MUC1 antigen ELISA, biotinylated glycopeptide.
The target of test [12] is T5, MUC1 tandem repeat peptide …. The test can be described thus: TA-MUC1 antigen ELISA, biotinylated glycopeptide.
Test [13] deals with T2, MUC1 tandem repeat peptide …. The test can be described thus: TA-MUC1 antigen ELISA, biotinylated glycopeptide.
The target of test [14] is T3, MUC1 tandem repeat peptide …. Briefly: TA-MUC1 antigen ELISA, biotinylated glycopeptide.
In test [15] the target is T6, His-tagged FcγRIIIa (Glycotope GmbH) (UniProt P08637 17-208, limits assumed).
T6 construct: also called Fcγ receptor IIIa; CD16a; not shown: His tag
T6 sequence (P08637 17-208 limits assumed): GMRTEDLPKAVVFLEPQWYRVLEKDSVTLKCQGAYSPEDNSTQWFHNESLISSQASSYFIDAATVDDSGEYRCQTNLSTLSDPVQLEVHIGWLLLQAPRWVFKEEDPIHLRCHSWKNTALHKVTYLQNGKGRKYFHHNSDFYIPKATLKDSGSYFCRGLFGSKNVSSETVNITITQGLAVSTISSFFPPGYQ
The test can be described thus: AlphaScreen competition, low-fucosylated antibody; His-tagged FcγRIIIa on Ni-chelate donor beads, competitor rabbit-anti-mouse coupled acceptor beads. The source says: For the receptor binding assays, His-tagged FcγRIIIa (Glycotope GmbH) is captured by Ni-chelate donor beads. Anti-MUC1 antibodies and rabbit-anti-mouse coupled acceptor beads compete for binding to FcγR. In case of interaction of FcγR with rabbit-anti-mouse-bound acceptor beads, donor and acceptor beads come into close proximity which leads, upon laser excitation at 680 nm, to light emission. A maximum signal is achieved (signalₘₐₓ) without a competitor. In case of competition, where a test antibody binds to FcγR, the signalₘₐₓ is reduced in a concentration-dependent manner. Chemiluminescence was quantified by measurement at 520-620 nm (AlphaScreen® method) using an EnSpire 2300 multilabel reader (PerkinElmer). All results were expressed as the mean±standard deviation of duplicate samples. The data were evaluated and calculated using non-linear curve fitting (sigmoidal dose-response variable slope) with GraphPad Prism 5 software. As a result, a concentration dependent sigmoidal curve was obtained, which is defined by top-plateau, bottom-plateau, slope and EC₅₀.
(In general: In Alpha technology, singlet oxygen from a donor bead excites a nearby acceptor bead.)

The target of test [16] is T2, MUC1 tandem repeat peptide …. The test can be described thus: antigen ELISA on Tn-PDTR MUC1 peptide, purified antibody [panel Binding to Tn-MUC1].

The term Kd denotes the free concentration of one partner at which half of the binding sites on the other are occupied at equilibrium, for simple one-to-one binding. As a reminder, the koff is a measure of how fast the partners let go of each other. What is called kon is the rate constant with which the complex forms. One may read the EC50 (read off the curve) as the concentration giving half of the maximal effect. Read a high EC50 (read off the curve) as lower potency in that assay.

B1: humanized antibody PankoMab N54Q (without Fab glycosylation) (antibody, human IgG1, kappa)
heavy: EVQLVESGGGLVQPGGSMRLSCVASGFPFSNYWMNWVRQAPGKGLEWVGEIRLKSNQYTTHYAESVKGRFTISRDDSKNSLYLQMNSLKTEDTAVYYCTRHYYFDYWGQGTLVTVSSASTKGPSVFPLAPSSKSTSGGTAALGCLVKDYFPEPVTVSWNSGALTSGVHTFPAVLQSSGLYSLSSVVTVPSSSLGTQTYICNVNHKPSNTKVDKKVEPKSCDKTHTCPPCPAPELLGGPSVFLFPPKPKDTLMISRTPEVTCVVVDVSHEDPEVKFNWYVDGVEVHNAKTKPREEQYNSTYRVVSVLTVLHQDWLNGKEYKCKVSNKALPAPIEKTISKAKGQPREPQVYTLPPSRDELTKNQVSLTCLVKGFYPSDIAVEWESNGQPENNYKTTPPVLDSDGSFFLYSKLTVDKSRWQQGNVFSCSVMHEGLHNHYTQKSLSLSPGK
light: DIVMTQSPLSNPVTPGEPASISCRSSKSLLHSNGITYFFWYLQKPGQSPQLLIYQMSNLASGVPDRFSGSGSGTDFTLRISRVEAEDVGVYYCAQNLELPPTFGQGTKVEIKRTVAAPSVFIFPPSDEQLKSGTASVVCLLNNFYPREAKVQWKVDNALQSGNSQESVTEQDSKDSTYSLSSTLTLSKADYEKHKVYACEVTHQGLSSPVTKSFNRGEC
notes: IgG1 kappa; Made in NM-H9D8 cells (for the FcγRIIIa assay also in NM-H9D8-E6Q12, low fucose); also called PM-N54Q; PM N54Q w/o Fab glyc
Turning to B1, the Kd amounted to 1.63 nM in test [1], 388 nM in test [3] and 1.6 nM in test [9]. Moreover, the koff in [1] came to 0.0109 s⁻¹. This molecule returned a kon in test [1] of 6.7e+06 M⁻¹ s⁻¹. In addition, the “EC50 (read off the curve)” value in [2] was roughly 10 ng/mL; in [4] it was roughly 100 ng/mL; in [5] it was roughly 10 ng/mL; in test [6], roughly 10 ng/mL; in [7] it was roughly 20 ng/mL; in test [10], roughly 10 ng/mL. The “EC50 (read off the curve)” value in test [16] is roughly 10 ng/mL. Besides, the “fold increase in affinity compared to PankoMab-GEX®” value in [8] was roughly 2 fold. Also, the “fold better binding compared to PankoMab-GEX®” value is 2 fold in test [11], 2 fold in [12] and roughly 7 fold in [14]. For the same molecule, the “fold higher binding compared to PankoMab-GEX®” value in test [13] came out at 4 fold. For the same molecule, the “IC50 (read off the curve)” value in test [15] is roughly 4000 ng/mL.
